From the nanobody polyreactivity screen of Harvey et al. (2022)

Test: yeast display, Sf9 membrane polyspecificity reagent, FACS + sequencing; frameworks hold sequencing errors
Outline: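 After 36–48 hours of galactose induction, yeast (Saccharomyces cerevisiae BJ5465) displaying a synthetic nanobody library were stained at 4 °C for 1 hour with 10% biotinylated, detergent-solubilized Sf9 membrane reagent. Streptavidin microbeads enriched the stained cells before FACS sorting into low and high (top ~1%) gates on anti-HA and streptavidin fluorescence. Each clone's polyreactivity label reflects its gate of origin.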

Row | Sequence | polyreactivity (PSR sort gate)
1 | QVHLVESGGGLVQAGGILRLSCAASGRTFPGYAMGWYRQAPGKERELVAAITYTGGDTHYADSVKGRFTISRDNAKNTVYLQMNSLKPEDTAVYYCAAVYYRGIQSYDYWGQGTQVTVSS | low polyreactivity
2 | QVHLVESGGGLVQAGGILRLSCSAYGSIFDVNAKGWYRQSPGKERELVAAISDSGGSTYYADSVKGRFTISRDNAKNTVYLQMNSLKPEDTSVYYCNADWYWYNYYDFDYWGQGTQVTVSS | low polyreactivity
3 | QVHLVESGGGLVQAGGRLLLSCAASGLILRTYGMGWYRQAPRKERELVAVISSGGSTYYADSVNGRFTISRDNAKNTVYLQMNSLKPEDTAVYYCAVRSSWYEGDYWGQGTQVTVSS | low polyreactivity
4 | QVHLVESGGGLVQAGGSHRLSCAASGSTLRWNAMGWYRQAPGKERELVAAITYSGGSTYYADSVKGRFTISRDNAKNTVYFQMNSLKPEDTAVYYCAADSYRYRPGYGPVLYDYWGQGTQVTVSS | high polyreactivity
5 | QVHLVESGGGLVQAGGSIRLSCAASGGTFSRNAMGWYRQAPGKERELVAAINSSGVSTSYADSVKGRFTISRDNAKNNVYLQMNSLKPEDTAVYYCAAETSSAEVDYWGQGTQVTVSS | low polyreactivity
6 | QVHLVESGGGLVQAGGSLGISCAASGRILYGYAMGWNRQAPGKERELVAAITATYYADSVKGRFTISRDNAKNSVYLQMNSLNPEDTGVFYCNAYLCPIQPLSPPDPTFEGGYWGQGTQVTVSS | low polyreactivity
7 | QVHLVESGGGLVQAGGSLGLSCAASGFTFANNAMGWYRQAPGKERELVAAISSSGGSTYYADSVKVRFTISRDNAKKTVYLQMNSLKPEDTAVYYCAARRRGSYYGYGYWGQGTQVTVSS | high polyreactivity
8 | QVHLVESGGGLVQAGGSLRISCAASGRIFVGYVMGWYRQAPGKERELVAAITWRGGSTYADSVKGRFTISRDNAKNTVYLQMNSLIPEDTAVYYCAAKVSRTYPRIPYYYWGQGTQVTVSS | high polyreactivity
9 | QVHLVESGGGLVQAGGSLRISFAASGRTFPYYDMGWYRQAPGKERELVAAINSGGRTNYADSVKGRFTISRDNAKNTVYLQLNSLKPEDTAVYYCTKRGHPSRLGYYYWGLGTQVTVSS | low polyreactivity
10 | QVHLVESGGGLVQAGGSLRLICAASGSIFRWNAMGWYRQAPGKEREFVATISSGRNTKYADSVKGRFTISRDNAKNTVYLQMTSLKPQDTAVNDCAAAVKRALDYWGQGTQVTVSS | high polyreactivity
11 | QVHLVESGGGLVQAGGSLRLICAASGYTFAFYAMGCYRQAPGKERELVAAISAGGGRTYYADSVKGRFTISRDNANNTVYLQMNSLKPEDTAVYYCATDLIQGAAPFRYDYWGQGTQVTVSS | low polyreactivity
12 | QVHLVESGGGLVQAGGSLRLILAASGYIFSSNAMGWYRQAPGKEREFVADISSTGGSTYYADSVKGRFTISRDNAKNTVYCQMNILKPEDTGVYYCAAYIRRYFHYDYWGQGTQVTGSS | high polyreactivity
13 | QVHLVESGGGLVQAGGSLRLRCAASGSNLESYAMGWYRQAPGKEMELVADITYDGGITYYADSVKGRFTISRDNAKNTVYLQMNSLKPEDTAVYYCATEYRYWQSDYSTYFPYDYWGQGTQVTVSS | low polyreactivity
14 | QVHLVESGGGLVQAGGSLRLSCAASGFIFSGYALGWKRQAPGKERELVAAITSSGDGTYYADSVKGRFTISRDNAKNTVYLQMNSLTPEDTAVYYCNAGRARYFWRTDRFDYWGQGTQVTVSS | high polyreactivity
15 | QVHLVESGGGLVQAGGSLRLSCAASGFIFTDYAMGWYRQAPGKERELVAAISSGGRTYYADSVKGRFTISRDNAKNTVYLQMNSLKPEDTAVYYCARGGRAEGWGQGTQVTVSS | high polyreactivity
16 | QVHLVESGGGLVQAGGSLRLSCAASGFIFYLYAMGWYRQAPGKERELVASITSSGRTNYADSVKGRFTISRDNAKNTVYLQMNSLKPEDTAVYYCNKRYSKGDEYYYWGQGTQVTVSS | high polyreactivity
17 | QVHLVESGGGLVQAGGSLRLSCAASGFLFRTYAMGWYRPGPGKERELVDAISNDANTKYADSVKGRFTISRDNAKNTVYLQMNSLKPEDTAVYYGAAKAIYRGRYLKIVKVGYWGQGTQVTVSS | high polyreactivity
18 | QVHLVESGGGLVQAGGSLRLSCAASGFTFGHYAMGWYRQAPGKERELVAAITYRGGSTYYADSVKGRFTISRDNAKNTVYLQMNSLKPEDTAVYYCNADRRYKVYFAQNGHYDYWGQGTQVTVSS | high polyreactivity
19 | QVHLVESGGGLVQAGGSLRLSCAASGFTFLDNAMGWYRQAPGKERELVAAISGIGGSTSYADSVKGRFTISRDNAKNTVYLQMNSLKPEDTAVYYCATRWKTVGRDTIFAYDYWGQGTQVTVSS | low polyreactivity
20 | QVHLVESGGGLVQAGGSLRLSCAASGFTFNLYAMGWYRQAPGQERELVAAINSSGGTYYADSVKGRFTLSRDNAKNTVYLQMNSLTAEDTAVYYCAADFPYTPWSYHHHVWSPDFVYWGQGTQVTVSS | low polyreactivity
21 | QVHLVESGGGLVQAGGSLRLSCAASGFTFPIYAIGWYRQAPGKERELVAAITTRGGSTYYADSVKGRFTISRDNAKNTVYLQMNSLKPEDTAVYYCNNRGRRTDYDYWGQGTQVTVSS | high polyreactivity
22 | QVHLVESGGGLVQAGGSLRLSCAASGFTFYAMGWYRQAPGKERELVAAIDQGGDRTYYADSVKGRFTISRDNAKNTVYFQMNSLKPEDTAVYYCAARYRRTWRLIYWGQGTQVTVSS | high polyreactivity

Row | Sequence | polyreactivity (PSR sort gate)
23 | QVHLVESGGGLVQAGGSLRLSCAASGFTFYRYAMGWYRQAPGKERELVAAISRRGVSTDYADSVKGRFTISRDNAKNTVYLQMNSLKPEDTAVYYCAASYSRGVGKFGYWGQGSQVTVSS | high polyreactivity
24 | QVHLVESGGGLVQAGGSLRLSCAASGGIFKQYAMGLYRQAPGKERDLVAAITWSGGSTYYADSVKGRFTISRDNAKNTVYLQMNRLKPVDTAVYYCAADRRYLDRDKHRYGYWGQGTQVTVSS | low polyreactivity
25 | QVHLVESGGGLVQAGGSLRLSCAASGGTFQSYAMGWYRQAPGKERELVAAITQGGGRTYYADSVKGRFTISRDNAKNTVYLQMNSLKPEDTAVYYCAARQKTPYYYNYGYWGQGTQVTVSS | high polyreactivity
26 | QVHLVESGGGLVQAGGSLRLSCAASGGTFWWYTMGWYRQAPGKERELVATITRGGSTNYADSVKGRFTISRDNAKNTVYLQMNSLKPEDTAVYYCSARWYVYVHFERYYWGQGTQVTVSS | high polyreactivity
27 | QVHLVESGGGLVQAGGSLRLSCAASGGTIGTYAMGWYRQAPGKERELVAAISGRGGSTFYADSVKGRFTISRDNAKNSVYLQMNSLKPEDTAVYYSARGHGRSSKYDYWGQGTQVTVSS | high polyreactivity
28 | QVHLVESGGGLVQAGGSLRLSCAASGIIFAPNAMGWYRQAPGKEREVVAGISSRGGSTYYADSVKGRFTISRDNAKNTVYLQMNSLKPEDTAVYYCAADLSYNPDEYWGQGTQVTVSS | low polyreactivity
29 | QVHLVESGGGLVQAGGSLRLSCAASGIIFAYYAMGWYRQAPGKERELVAAISSTGSTHYADSVKGRFTISRDNAKNTVYLQMNSLKPEDTAVYYCNAYYYYRFKPSHPGLRSYYWGQGTQVTVSS | high polyreactivity
30 | QVHLVESGGGLVQAGGSLRLSCAASGIIFTWYAMGMYRQAPGKEREMVAAISGSGDITYYADSVKGRFTISRDNAKNTVYLQMNSLKPEDTAVYYCAADPWTYWEDYDYWGQGTQVTVSS | low polyreactivity
31 | QVHLVESGGGLVQAGGSLRLSCAASGIILYRNAMGWYRQAPGKERELVAAITNTGSRTYYADSVKGRFTISRDNAKNTVYLQMTSLKPEDTAVYYCAAYYYYSAYGDDYWGQGTQVTVSS | high polyreactivity
32 | QVHLVESGGGLVQAGGSLRLSCAASGITFKWNDMGWYRQAPGKEREFVAAITGSTGSTFYADSVKGRFTISRDNAKNTVYLQMNSLKPEDTAVYFCAAGPWFYYWRQGTQVTVSS | low polyreactivity
33 | QVHLVESGGGLVQAGGSLRLSCAASGITFYRYAMGWYRQAPWKERELVAAITVGGRTYYADSVKGRFTISRDNAKNNVYLQMNSLKPEDTAVYYCNVRTLHSVRGYYYWGQGTQVTVSS | high polyreactivity
34 | QVHLVESGGGLVQAGGSLRLSCAASGKIFRSYMGWYRQAPGKERELVASISRRGGSTYYADSEKGRFTISRDNAKNTVTLQMISLKPEDTAVYYCANVVNYPSARYCYWGQGTQVTVSS | high polyreactivity
35 | QVHLVESGGGLVQAGGSLRLSCAASGLIFVKYALGWYRQAPGKEREFVAAITRSGGTTYYADSVKGRFTISRDNAKNTVYLQMNSLKPEDTAVYYCAAGVVIYFFGGGDYWGQGTQVTVSS | low polyreactivity
36 | QVHLVESGGGLVQAGGSLRLSCAASGLIFVYNAMGWYRQAPGKERELVAGITSGGSTYYADSVKGRFTISRDNAKNTVYLQMNSLKPEDTAVSYCAAGYYDLYLWWGYDYWGQGTQVTVSS | high polyreactivity
37 | QVHLVESGGGLVQAGGSLRLSCAASGLTFAYYAMGWYRQAPGKERELVAAITDSAGNTYYADSVKGRFTISRDNAKNTVYLQMNSLKQEDTAVYYCAAAWPSTGLLYVLGYSGYGYWGQGTQVTVSS | low polyreactivity
38 | QVHLVESGGGLVQAGGSLRLSCAASGNSFTGNAMGWYRQAPGKETELVAALSKRGGSTFYADSVKGRFTISRDNPKNTVYLQLNRLKPEDTAVYYCNALRRGVRDPYGYWGQGTQVTVSS | high polyreactivity
39 | QVHLVESGGGLVQAGGSLRLSCAASGNTFYAYARGWYRQAPGKERELVAAIARAGNTYYADSVKGRFTISRDNAKNTVYLQMNSLKPEDTAVYYCNADDWWYGDNYWGQGTEVTVSS | high polyreactivity
40 | QVHLVESGGGLVQAGGSLRLSCAASGNTFYQYAMGWYRQAPGKERELVAAISSSGGSTYYADSVKGRFTISRDNAKNTVYLQMNSLKPEDTAVYYCATDKWYGYYYWGPGTQVTVSS | low polyreactivity
41 | QVHLVESGGGLVQAGGSLRLSCAASGNTLRVYTKGWYRQAPWKERELVAAISRRGSRTYYADTVKGRFTISRENAKYTVYLQMNSLKPEDTAVYYCAAGIPYPDDYWGQGTQVTVSS | high polyreactivity
42 | QVHLVESGGGLVQAGGSLRLSCAASGRIFDYNTMGWYRQAPGKERELVAAITGGTGSTYYADSVKGRFTISRDNAKNTVYLQMNSLKPEDTAVYYCAAGFHKRVTPEILYDYWGQGTQLTVSS | low polyreactivity
43 | QVHLVESGGGLVQAGGSLRLSCAASGRIFGEYAMGWYRQAPGKERELVAAISYRGGRTYYADSVKGRFTISRDNAKNTVYLQMNSLKPEDTAVYYCAKTNRDEYDYWGQGTQVTVSS | high polyreactivity
